Measured values: PMC5062977 (Nucleic Acids Research, 2016)

B1: His-tag AlkB (Escherichia coli alkylation repair protein-B) (enzyme, E. coli)
chain: MLDLFADAEPWQEPLAAGAVILRRFAFNAAEQLIRDINDVASQSPFRQMVTPGGYTMSVAMTNCGHLGWTTHRQGYLYSPIDPQTNKPWPAMPQSFHNLCQRAATAAGYPDFQPDACLINRYAPGAKLSLHQDKDEPDLRAPIVSVSLGLPAIFQFGGLKRNDPLKRLLLEHGDVVVWGGESRLFYHGIQPLKAGFHPLTIDCRYNLTFRQAGKKE
B2: His-tag RecA (natural protein, E. coli)
chain: AIDENKQKALAAALGQIEKQFGKGSIMRLGEDRSMDVETISTGSLSLDIALGAGGLPMGRIVEIYGPESSGKTTLTLQVIAAAQREGKTCAFIDAEHALDPIYARKLGVDIDNLLCSQPDTGEQALEICDALARSGAVDVIVVDSVAALTPKAEIEGEIGDSHMGLAARMMSQAMRKLAGNLKQSNTLLIFINQIRMKIGVMFGNPETTTGGNALKFYASVRLDIRRIGAVKEGENVVGSETRVKVVKNKIAAPFKQAEFQILYGEGINFYGELVDLGVKEKLIEKAGAWYSYKGEKIGQGKANATAWLKDNPETAKEIEKKVRELLLSNPNSTPDFSVDDSEGVAETNEDF

Tests used:
His-tag RecA = molecular target: B2; test: SEC
GST-RecA = molecular target: T1, GST-RecA (E. coli, UniProt P0A7G6 2-353); test: pull-down
T1 sequence: B2 chain

SEC = molecular target: the molecule itself; test: SEC

Row | Binder | binding result (His-tag RecA) | binding result (GST-RecA) | binding result (SEC)
1 | B1 | binds | binds | 
2 | B2 |  |  | binds
